In US10023909:
Like-named read-outs stand apart in the source and are kept apart here.

Target: DNMT1 (Mus musculus) (UniProt P13864)
Conditions: 5mC and 5hmC on top strand only, SAM, 37 C, 4 h

UniProt P13864, sequence (P13864 other isoform, or with tags, fused parts or gaps): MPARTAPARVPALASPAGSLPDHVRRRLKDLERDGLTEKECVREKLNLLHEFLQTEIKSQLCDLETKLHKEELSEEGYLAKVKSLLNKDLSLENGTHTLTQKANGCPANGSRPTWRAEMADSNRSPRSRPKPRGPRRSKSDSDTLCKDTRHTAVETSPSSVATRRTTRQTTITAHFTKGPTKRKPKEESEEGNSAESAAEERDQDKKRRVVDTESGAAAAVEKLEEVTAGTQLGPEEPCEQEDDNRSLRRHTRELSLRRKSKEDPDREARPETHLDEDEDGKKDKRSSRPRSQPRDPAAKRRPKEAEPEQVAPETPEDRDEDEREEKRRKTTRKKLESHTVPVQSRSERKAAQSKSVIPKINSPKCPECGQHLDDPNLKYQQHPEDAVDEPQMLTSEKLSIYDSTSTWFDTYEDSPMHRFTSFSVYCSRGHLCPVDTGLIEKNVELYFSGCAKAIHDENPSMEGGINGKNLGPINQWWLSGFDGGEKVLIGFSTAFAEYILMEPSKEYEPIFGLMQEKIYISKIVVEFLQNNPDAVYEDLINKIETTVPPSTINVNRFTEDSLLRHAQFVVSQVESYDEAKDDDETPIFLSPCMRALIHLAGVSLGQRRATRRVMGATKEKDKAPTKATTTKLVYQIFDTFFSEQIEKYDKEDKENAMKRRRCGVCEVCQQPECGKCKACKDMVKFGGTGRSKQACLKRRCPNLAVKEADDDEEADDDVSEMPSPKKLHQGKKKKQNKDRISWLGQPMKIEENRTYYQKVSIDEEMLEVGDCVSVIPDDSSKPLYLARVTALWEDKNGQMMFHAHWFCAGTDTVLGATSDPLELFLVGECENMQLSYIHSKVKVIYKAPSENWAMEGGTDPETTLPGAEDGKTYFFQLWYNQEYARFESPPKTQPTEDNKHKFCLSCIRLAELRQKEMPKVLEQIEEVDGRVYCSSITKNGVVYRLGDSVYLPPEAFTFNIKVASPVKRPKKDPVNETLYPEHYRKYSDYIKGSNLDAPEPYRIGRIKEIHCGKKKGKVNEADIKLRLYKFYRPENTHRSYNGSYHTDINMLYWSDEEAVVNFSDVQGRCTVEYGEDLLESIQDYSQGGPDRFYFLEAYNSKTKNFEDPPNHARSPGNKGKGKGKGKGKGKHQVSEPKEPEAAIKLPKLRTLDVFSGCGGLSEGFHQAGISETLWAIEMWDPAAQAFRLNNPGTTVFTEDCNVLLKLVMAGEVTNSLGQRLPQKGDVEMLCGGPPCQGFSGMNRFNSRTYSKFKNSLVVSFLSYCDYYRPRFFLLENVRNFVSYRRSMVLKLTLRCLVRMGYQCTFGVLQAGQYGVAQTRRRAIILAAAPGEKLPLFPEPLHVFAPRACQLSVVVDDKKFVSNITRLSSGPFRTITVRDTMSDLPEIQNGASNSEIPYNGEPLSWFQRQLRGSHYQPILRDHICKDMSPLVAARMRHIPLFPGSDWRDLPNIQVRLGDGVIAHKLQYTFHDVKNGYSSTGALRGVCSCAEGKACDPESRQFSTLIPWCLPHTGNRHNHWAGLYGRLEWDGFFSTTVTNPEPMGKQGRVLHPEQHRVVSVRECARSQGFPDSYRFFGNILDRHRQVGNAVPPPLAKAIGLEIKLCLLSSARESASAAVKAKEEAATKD

## 112 bp 5hmC:C:5meC top/unmodified bottom duplex, hemi-5hmC CpG site
No methylation across from 5hmC
  activity: 0%

## 112 bp 5hmC:C:5meC top/unmodified bottom duplex, hemi-5meC CpG site
Methylation by bisulfite sequencing (14 of 16 clones)
  activity: 87.5%

## 112 bp 5hmC:C:5meC top/unmodified bottom duplex, unmodified CpG site
No methylation by bisulfite sequencing
  activity: 0%
